From publication PMC4858740 (2016) come the findings set out here.

The labels stand for the following.
T1: SLAMF3 ECD (human, UniProt Q9HBG7 48-454)
T1 chain: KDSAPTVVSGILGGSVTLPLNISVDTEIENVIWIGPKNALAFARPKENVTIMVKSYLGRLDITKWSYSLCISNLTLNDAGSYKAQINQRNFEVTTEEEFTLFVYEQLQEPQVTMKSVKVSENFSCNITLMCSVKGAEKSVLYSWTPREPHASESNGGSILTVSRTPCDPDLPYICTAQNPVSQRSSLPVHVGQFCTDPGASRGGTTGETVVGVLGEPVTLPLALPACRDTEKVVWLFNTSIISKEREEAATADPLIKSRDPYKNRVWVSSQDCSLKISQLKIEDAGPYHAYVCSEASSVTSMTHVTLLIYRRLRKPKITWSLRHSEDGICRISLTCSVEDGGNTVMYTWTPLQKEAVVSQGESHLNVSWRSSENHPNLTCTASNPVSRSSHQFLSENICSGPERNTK

T2: SLAMF4 ECD (human, UniProt Q9BZW8 22-229)
T2 chain: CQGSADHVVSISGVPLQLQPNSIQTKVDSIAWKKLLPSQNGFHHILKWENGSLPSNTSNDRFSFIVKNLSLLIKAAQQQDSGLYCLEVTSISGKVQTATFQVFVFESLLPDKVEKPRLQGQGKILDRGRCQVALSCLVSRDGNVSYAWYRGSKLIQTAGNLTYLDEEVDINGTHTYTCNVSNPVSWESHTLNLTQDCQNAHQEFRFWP

T3: SLAMF7 ECD (human, UniProt Q9NQ25 23-226)
T3 chain: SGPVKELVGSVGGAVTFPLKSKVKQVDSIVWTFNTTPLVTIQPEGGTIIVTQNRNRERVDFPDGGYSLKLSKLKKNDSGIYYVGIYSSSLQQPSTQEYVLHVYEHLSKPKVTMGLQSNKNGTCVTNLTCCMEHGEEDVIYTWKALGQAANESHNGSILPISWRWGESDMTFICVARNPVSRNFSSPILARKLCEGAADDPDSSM

T4: SLAMF1 ECD (human, UniProt Q13291 21-237)
T4 chain: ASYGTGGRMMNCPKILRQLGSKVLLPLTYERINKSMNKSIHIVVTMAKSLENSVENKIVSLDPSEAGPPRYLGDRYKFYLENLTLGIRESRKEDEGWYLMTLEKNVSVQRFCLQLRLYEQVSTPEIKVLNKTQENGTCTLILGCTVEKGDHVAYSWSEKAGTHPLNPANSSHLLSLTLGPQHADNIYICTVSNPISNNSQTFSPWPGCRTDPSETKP

T5: SLAMF6 ECD (human, UniProt Q96DU3 22-226)
T5 chain: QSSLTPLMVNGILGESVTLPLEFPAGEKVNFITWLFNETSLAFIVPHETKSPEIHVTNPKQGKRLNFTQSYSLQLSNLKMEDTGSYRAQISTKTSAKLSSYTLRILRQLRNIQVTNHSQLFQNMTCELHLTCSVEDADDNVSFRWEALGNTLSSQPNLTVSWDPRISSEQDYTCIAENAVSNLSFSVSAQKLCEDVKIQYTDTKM

T6: SLAMF5 ECD (human, UniProt Q9UIB8 22-225)
T6 chain: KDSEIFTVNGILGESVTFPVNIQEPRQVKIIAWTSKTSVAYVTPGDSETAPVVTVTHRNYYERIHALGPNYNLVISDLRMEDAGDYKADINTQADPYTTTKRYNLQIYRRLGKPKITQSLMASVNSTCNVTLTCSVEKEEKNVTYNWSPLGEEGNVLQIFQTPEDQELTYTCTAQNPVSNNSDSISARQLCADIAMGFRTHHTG

B1: HAdV-D30 E3/49K (Fc fusion)
chain: ADPILVSVDWGKNLKLEGPKETPVEWWGGKNIQQLCVGNQTKHKELRHTCNMQNITLLSVNTSFNGDYFGFKNDNSGMKHYKVTVIPPKPTTRKPLPPPHYVNATMGQNLTLVGPANIPVTWLSEFGTLCEGKKILHEELNHTCNEQNLTLLFVNMTHNGPYFGFGKDNVDREQYEVSIISLFKVGAGQKKIDKGQRAEEKTKFNSGDLGRKQSRPKKKDIVDEVQVKSGNNQTLIGPPGKNVDWIKLSSGNDAVVTLCKGDTWIKHTCNGPNVTLINVTKPYEGSYYGSSDDGSSHYKVTVYDLYKSNKSKSKVKPYTTKGTTVNATNANGLKNALQQDGESENDQESKIPSAT
B2: HAdV-B1 CR1γ (Fc fusion)
chain: RSHLTVPVGSTCTLQGPQEGYVTWWRIYDNGGFARPCDQPGTKFSCNGRDLTIINITSNEQGFYYGTNYKNSLDYNIIVVPATTSAPRKSTFSSSSAKASTIPKTASAMLKLPKIALSNSTAAPNTIPKST
B3: CD45RO ECD (domain or fragment)
chain: QSPTPSPTDAYLNASETTTLSPSGSAVISTTTIATTPSKPTCDEKYANITVDYLYNKETKLFTAKLNVNENVECGNNTCTNNEVHNLTECKNASVSISHNSCTAPDKTLILDVPPGVEKFQLHDCTQVEKADTTICLKWKNIETFTCDTQNITYRFQCGNMIFDNKEIKLENLEPEHEYKCDSEILYNNHKFTNASKIIKTDFGSPGEPQIIFCRSEAAHQGVITWNPPQRSFHNFTLCYIKETEKDCLNLDKNLIKYDLQNLKPYTKYVLSLHAYIIAKVQRNGSAAMCHFTTKSAPPSQVWNMTVSMTSDNSMHVKCRPPRDRNGPHERYHLEVEAGNTLVRNESHKNCDFRVKDLQYSTDYTFKAYFHNGDYPGEPFILHHSTSYNSK
B4: HAdV-A18 CR1α (Fc fusion)
chain: LSPEEEPNCRPPLTNIKVVLSTTHVTLQCKFFSTQLTWTFNGKNVAEANLKYHINKENITLHSPIHLGYYRCFATPCVQAFFLAPVINPRPATTAQPEKITKLISTAIATTATKGTEEIIYFSNFTTNLLLNCSCSNSLISWFANNTFCKAFFQGTTLYSAKLELCNTSTPSNLTLLPPFVAGRYFCIGAGGHPCQRHWKLVFRPTLVLPTSADPTLSPTPNF

Assay in all cases: SPR
A general note: SPR reads the build-up and loss of mass on a sensor chip optically.

Assay [1] addresses B3.
Assay [2] concerns the target T1, SLAMF3 ECD.
Assay [3] addresses SLAMF8 ECD (human, UniProt Q9P0V8 23-233).
Assay [4] has as its target T2, SLAMF4 ECD.
For assay [5], the target named is T3, SLAMF7 ECD.
Assay [6] deals with T4, SLAMF1 ECD.
Assay [7] has as its target HAdV-D23 E3/49K (human adenovirus D23).
For assay [8], the target named is HAdV-D53 E3/49K (human adenovirus D53).
The target of assay [9] is T5, SLAMF6 ECD.
Assay [10] concerns the target T6, SLAMF5 ECD.

Sequence of SLAMF8 ECD (Q9P0V8 23-233): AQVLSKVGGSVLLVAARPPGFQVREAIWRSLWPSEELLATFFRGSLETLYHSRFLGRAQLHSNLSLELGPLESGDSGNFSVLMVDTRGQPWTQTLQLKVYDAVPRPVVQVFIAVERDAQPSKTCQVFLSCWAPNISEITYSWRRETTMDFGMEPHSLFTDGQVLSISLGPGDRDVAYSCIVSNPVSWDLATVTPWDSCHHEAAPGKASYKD

In the case of B1, the Kd (as a rule, the constant that tells how readily two partners part at equilibrium) stood at 0.00019 µM in assay [1] and 0.018 µM in assay [2].

B2: the Kd in assay [3] turned out to be 0.06 µM; in assay [4] it was 0.28 µM; in assay [5], 0.0015 µM; in assay [2] it was 0.086 µM; in [6] it was 0.215 µM.

Consider B3, for which the Kd in [7] was determined as 0.00018 µM; in assay [8] it was 0.00021 µM.

As to B4, the results for the Kd in assay [9], in assay [5] and in [10] were 0.631 µM, 0.137 µM and 0.0021 µM, respectively.
